# Test: soluble on expression in E. coli; label from the status in PepcDB or PDB records
row,Sequence,soluble on expression in E. coli
1,MGSDKIHHHHHHMPNQPLIFDTAIAKDKPENIRHPHNACPFCDPGQLTDIIAQDADRIWLLNKFPTLQATWQTIVIEAARHDGDIATYSSAQNRAVFTFALKHWQATIASGRFKSVLCYKNFGPHSGGSLRHPHMQIVGLMAADGYANVTAANLTGYSVLAVDQVQVTVSDRPIMGFVEINVAAPATAIAPLADAVQQVVQYTLNTYFHGQCDSYNLFFYPRDDQIVAKVVPLFNVSPYYIGYRLAQADTPKRMRAIAEEIRQQFERSNLAHSN,not soluble
2,MNPILTAAKQLLHKEEKILSTLKCSLTGYMITHKVPYPGMLLATNQRLLFFSQYKNTFIAEFDYEKILSIETKRRIFDKKIIFYYEDEYITLGYITSSNVEAFIDLLQRNSKTSTGL,not soluble
3,GSDIGQVIHPDDFDKAAADDYVLHEDGEKIYFLIKSKTDEYCFTNLALVHLDGESAVSSKRVLYRYPYAHYPIRHVMFETAGTVDLDVEIKFEIGGKHYSIDVDKKQLEHVKDLYKALLAIAEKQYEGQKMLEFANSSLNHSVTILGGLRQGDMNVPQTFKDLSQESFDWLQGHYYKWNQKDFGSFYEKYINN,soluble
4,RCGAGGYEALRGPLGAAGRRARQAWTIAPGSRRRGKAAAQSSVPGAGHAGGGAAPRRPAAAVRPGSPPLAGALTPRPSPLQGPFPGRLLAGPPPRFPGGTMTDTRRRVKVYTLNEDRQWDDRGTGHVSSGYVERLKGMSLLVRAESDGSLLLESKINPNTAYQKQQDTLIVWSEAENYDLALSFQEKAGCDEIWEKICQVQGKDPSVDITQDLVDESEEERFDDMSSPGLELPSCELSRLEEIAELVASSLPSPLRREKLALALENEGYIKKLLELFHVCEDLENIEGLHHLYEIIKGIFLLNRTALFEVMFSEECIMDVIGCLEYDPALSQPRKHREFLTKTAKFKEVIPISDPELKQKIHQTYRVQYIQDMVLPTPSVFEENMLSTLHSFIFFNKVEIVGMLQEDEKFLTDLFAQLTDEATDEEKRQELVNFLKEFCAFSQTLQPQNRDAFFKTLSNMGILPALEVILGMDDTQVRSAATDIFSYLVEYNPSMVREFVMQEAQQNDDDILLINLIIEHMICDTDPELGGAVQLMGLLRTLVDPENMLATANKTEKTEFLGFFYKHCMHVLTAPLLANTTEDKPSKDDFQTAQLLALVLELLTFCVEHHTYHIKNYIINKDILRRVLVLMASKHAFLALCALRFKRKIIGLKDEFYNRYIMKSFLFEPVVKAFLNNGSRYNLMNSAIIEMFEFIRVEDIKSLTAHVIENYWKALEDVDYVQTFKGLKLRFEQQRERQDNPKLDSMRSILRNHRYRRDARTLEDEEEMWFNTDEDDMEDGEAVVSPSDKTKNDDDIMDPISKFMERKKLKESEEKEVLLKTNLSGRQSPSFKLSLSSGTKTNLTSQSSTTNLPGSPGSPGSPGSPGSPGSVPKNTSQTAAITTKGGLVGLVDYPDDDEDDDEDEDKEDTLPLSKKAKFDS,soluble
5,MKVKKWVTQDFPMVEESATVRECLHRMRQYQTNECIVKDREGHFRGVVNKEDLLDLDLDSSVFNKVSLPDFFVHEEDNITHALLLFLEHQEPYLPVVDEEMRLKGAVSLHDFLEALIEALAMDVPGIRFSVLLEDKPGELRKVVDALALSNINILSVITTRSGDGKREVLIKVDAVDEGTLIKLFESLGIKIESIEKEEGF,not soluble
6,GPHMTQEEAVVNASLWEYVRLRESYDADTAQYAYDLVSNFSAPMVRQNYQQFFNYPNPTSPQVILGKHGRLEVEHIASNDVTPGVQQIRYKRTLIVDGKMPMASTWTATVRYEKVTSLPGRLRLTNPGGLVVTSYQTSEDTVSNAGHSEP,soluble
7,MSSVKDTMTTQVATVSPNQTIQEAASLMKQHNVGAIPVVEQGVLKGMLTDRDIALRTTAQGRDGQTPVSEVMSTELVSGNPNMSLEDASQLMAQHQIRRLPIVDQNNLVGIVALGDLAVNQMSNESAGSALTNISHQNIH,not soluble
8,MSRIVAIDYGRKRTGIAVSDTLQLIANGLTTVPTHELLNFIGGYVAKEPVERIIIGLPKQMNNEASENMKNIEPFVRSLKKRFPELPVEYVDERFTSVLAHRTMLEAGLKKKDRQNKALVDEISATIILQTYLESKRF,not soluble
9,MGSDKIHHHHHHMVLPGFFVPVKGWCPLPGVVIFTDVPAVVPATVSAHEAACPAGSPVLPRVSGLPPLRDGSRGRDCPMGASHVWDLPFSPPAGAALPCRRSRSHGLAPAPRVYGMLLVRAWRCSMDRDTVAGLMADALLERRFRHNDGAHPALAALRELAVNQGTDAGRRMVADDPHEVGSPPLSPIDPVELLQHDGALPSLPTVYVELRQRLADPDCSVREAAEVITRDAGLTAWLLRVVNSASYGLSGRVDTVTQAVAVVGMRQLETMVASGMLQSLMRSVPRGLVDMERLWRHSLAVGGAAREIWRLMGRPDPERLFVAGVLHDVGYLAFVMMAPQKAAQLVPRLRASHLPGHLAERELLGFDHAKLGGMLLHKWNMPVPLVMSVLRHHEPESVPSMPEPSVIHLADIVARAMGYGPDAESAVPPLSASAWEASGLTPQHLEAVANAMTAMVDDLGTAVMCTTV,not soluble
10,MSLVDQIKSYVAMRKYSIKRDEHGIVRLQLNNKDLFQFGPLDQGWWPDGLYTAPTDEALRYDIEKTKDFGFNMIRKHIKVEPARWYTYCDQIGLIVWQDMPSGDKSPEWQNRKYFEGTELTRSAESEETYRKEWKEVIDCLYSYPCIGTWVPFNEAWGQFKTQEIAEWTKQYDPSRLVNPASGGNHYTCGDMLDLHHYPGPEMFLYDAQRATVLGEYGGIGLVLKDHLWEPNRNWGYIQFNTSAEATAEYLKYAGILKDMISRGFSAAVYTQTTDVEVEVNGLMTYDRKVIKLDESKLKKMNTEICNSLKEGHHHHHH,not soluble
11,MKLDIKKDLKNIAWHCTMCGGCCDSPSVSKKDVANIAGFLKIPFDEVVKKYLVNFDGMTGRLKTSKEKCIFLDENNKCKIYRVRPIICRLRPYSVQIKDQNLVLTYDGWFLENCKGLFMGDLDPDEEYYKHAETVLKYLGEEENTPEEFFEKAKKRLKKSKKLEHHHHHH,soluble
12,MPEISPYVTKTEVQLMMAGLDYRKTNGSRDTAPKGQLPWIVDAAQAIADSTFIRVHIERKYDVDLDFGLTGRERAQAWAIERMIENQLGWVSTYFRFLEPANFERGPARAFDQAPGHLRDELRQGLREAVAANIRAVGVGRHLREEVAWLGGLSLRALDELLEDKAYLMRDAYPVGVDATAFAMLAAIMTPFFDSPLRRQAERYPRLVAYVGRMMERFYPAHPWGLRQAALEHHHHHH,not soluble
13,MAHHHHHHMLRGLVNADALTSEQEEHIDQLQHEIDEIWNRRGNYQVDPDAWETMPFFMENITEEDIDKNANCAALASIVYEEVPPDEIAENRKEHGNRALNMALNPNQERRENLARAACYSYTEALQAKGKNTKLSSTIYANRSLAQFIVGNYGHALADAQRSIILDPNYRKAYYRAAKCAFALKKYDMGLQMLEKGRRVVDPPMDAAAQAEFLEMETNCLQGKEQQASEEAKQRRAARSQAAKVSNVARAITSSGIKISSRAEVTSEQMGVYGNPKPYFDTDGMLHVPLLFMYDEYQQTDIMHDVACDVCAAELLDELMPFPWDDRGRYQRLADIVVFFKIDDGANDVQYYEVDQSWPLLEVFREETYEMPQLMPVLHVVCKTSELVDRLEIHRVA,soluble
14,MKAVVFDFDGTMLDTENLWYTETMKYLKDTYNIDLPDEIYQQIIGTSEEPIISYMMEATNGAFDKEAFLTTVAEACHLGQQSLGFRNGFKEFFEQVKANGYKIGLATSSGFDWIEPTLDRLGILADFETIQTADHVEEIKPHPALYLQAVEALGVKPEEAIAIEDSKNGALSALQAGLKVYIVPNEATKNITFPKEATVVSSFAEIKLK,not soluble
15,MTSLCNKELSDTLVGLYDDYKRGFDIGEELKLCVDLALTLELELSIHRLSETDTVLKKEIIQTLQNRRNSHSNEDETIDETGTIIQMDFKERN,soluble
16,MGSDKIHHHHHHMKSYRKELWFHTKRRREFINITPLLEECVRESGIKEGLLLCNAMHITASVFINDDEPGLHHDFEVWLEKLAPEKPYSQYKHNDTGEDNADAHLKRTIMGREVVIAITDRKMDLGPWEQVFYGEFDGMRPKRVLVKIIGE,soluble
17,MGSDKIHHHHHHMKLLEVKGLKKYFPLTKGFFKKVVGYVRAVDDVSFDIKQGETLALVGESGCGKTTTAKSILRAIDPTDGDVILHLDGKDVNIAKLSRDELKPYRRYMQMIFQNPYTSLNPRMKVKEIVGEPLLVNGIAKGKELEDRVAELLKAVGLRPEYMIRYPHAFSGGQRQRIVIARAIALRPKLVVCDEPTSALDVSIRAQILNLLMDLQEEFALTYLFITHDLSVVEHISDRVAVMYLGKIVELSSTEEIFENPKHPYTETLLRSVPKPDPDLREELVPIEGEVPNPANPPSGCYFHPRCPYAKSICKEEYPEFRNLGTEDNPHYVACHFAESLKLRGVKITL,not soluble
18,GALLHQRDQDMLVSILDLEKVSVEDIMIPRSDLVGIDVNDDWKKIQKQLTQANHTRVLLYRDSIDDVVGYIHARDALKLLSKNQFNKATLLRAVRELYFVPEGTPLNIQLLKFQHAKERIGLVVDEYGDIQGLVTLEDILEEIVGDFT,not soluble
19,MSLDENIVKTGSNEMELVDFRIFKQGHDKVYEGIYGVNVSKVREIIKIPSLTELPGVPDYIEGIFDLRGVVIPVVNLAKWMQITEPESTMLKPRVIITEFSNILIGFIVHEAKRIRRINWKDIEPATFSTGSGALDKGKITGVTRIENDEVLLILDLESVVEDLGIYAPKTDIDFGKIEKFTGTALILDDSMTARKRVKEMMQQMGFQVVEAKDGVEGINKLEELSQIYGESLNDTLKIIVSDVEMPQMDGFHFAARIKEDPRFKDIPIVFNSSLSNEFMNEKGVQEAGGEGYLVKFNASDFFNEIAKVIKKHQSQEGHHHHHH,soluble
20,MGSDKIHHHHHHMADNLALRMRPRNINEVIGQQHLVGNGKIIDRMVAANMLSSMILYGPPGIGKTSIASAIAGTTKYAFRTFNATVDSKKRLQEIAEEAKFSGGLVLLLDEIHRLDKTKQDFLLPLLENGNIIMIGATTENPFFSVTPAIRSRVQIFELEPLSNEDIKKAIQLAISDKERGFPFLVTIDDEALDFIVTATNGDLRSAYNSLDLAVMSTSPNEDGSRHISLETMENSLQCSYITMDKNGDGHYDILSALQKSIRGSDVNASLHYAARLVEAGDLPSLARRLTIIAYEDIGLANPEAQIHTVTALEAAQRIGFPEARILIANIVVDLALSPKSNSAYLAMDAALADLRRSGNLPIPRHLRDGHYSGSKTLGNARDYKYPHAYPEKWVKQQYLPDKLVGHNYFEANETGKYERALGSNKERIDKLSD,not soluble
21,MDRISQLSDDLLLQILSFIPGKDVVATSLLSKRWQSLWMLVSELEYDDSYHTGDYKSFSQFVYRSLLSNNAPVIKHLHLNLGPDCPAIDIGLWIGFALTRRLRQLKINIRTSSNDASFSLPSSLYTSDTLETLRLINFVLLDVPSSVCLPSLKVLHLKTVDYEDDASLPSLLFGCPNLEELFVERHDQDLEMDVTFVVPSLRRLSMIDKNYGQCDRYVIDVPSLKYLNITDDAVYDVRQIENMPELVEAHVDITQGVTHKFLRALTSVRQLSLCLSLSEKQHESGLCGIETPIGWKLPSSVPECLLFSLEAFEWIGYKGRRGDREVATYVLKNAACLRTAKFSPESTDVGEKYHMLKELASVPTASTSSKLLFD,soluble
22,MAHHHHHHMALLEWARQDATMKSSLELYCGPASKDLMIMDIPANVAVDAYLWEGLLVAESMLEADGTLLVVSPHAFSVRVRRFLQWRFLRAQCAVSEAGAVHYAVCSTVAAGFGDAAVRRDDFPGQLATGKRRPCKWNPYRRPEKRKFVASLRPWFTNAPFVKDALRCSLERERDAQERLRDADDAFFAVAHEMVEKGVHYSHPND,not soluble

# From the DeepSol protein solubility set
